This data set in a line: protein stability index of a GFP-peptide fusion (GPS, HEK-293T) (PSI 1-6); higher = more stable. Particulars: c terminus: a fixed tail appended.

Here are results for 36 sequences from the supplement of paper PMC10567573.

± gives the standard deviation.
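Note: 24-mer peptide tiles fused after GFP, lentivirally expressed, FACS-sorted into six equal bins by GFP/DsRed ratio, decoded by Illumina sequencing, PSI is the read-weighted mean bin number.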

On to ALSEILRIGKRPDLLTFVQNLCKG [NEUROD6], for which the protein stability index by setting is: (treatment: DMSO) 2.49 ± 0.46; (treatment: MLN4924 1 uM, 8 h) 2.29 ± 0.21.
ALSLIRFPLMTIEEFAAGPAQSGI [BTBD1]: the protein stability index was determined as 2.09 ± 0.35 (treatment: DMSO) and 2.04 ± 0.13 (treatment: MLN4924 1 uM, 8 h).
Take ALWCSGHLNGHAMCQTKHSPWADG [ADAMTS4]: the protein stability index came to 2.48 ± 0.38 (treatment: DMSO) and 2.27 ± 0.47 (treatment: MLN4924 1 uM, 8 h).
Take AMAAAEGSSGPAGLTLGRSFSNYR [SEPHS2]: the protein stability index is, setting by setting: (treatment: DMSO) 3.82 ± 0.16; (treatment: MLN4924 1 uM, 8 h) 3.63 ± 0.23.
Take AMKSVHENMDLNKIDDLMQEITEQ [CHMP4C]: the protein stability index reads like this: (treatment: DMSO) 4.7 ± 0.16; (treatment: MLN4924 1 uM, 8 h) 4.85 ± 0.52.
AMPPYGQGPPMVPPYQGGPPRPPM [ZNF207] gave a protein stability index (treatment: DMSO) of 3.79 ± 0.45 and a protein stability index (treatment: MLN4924 1 uM, 8 h) of 3.92 ± 0.2.
Consider ANYLEKVRQLERENAELESRIQEW [KRT36], for which the protein stability index by setting is: (treatment: DMSO) 4.27 ± 0.3; (treatment: MLN4924 1 uM, 8 h) 4.46 ± 0.16.
With APAGASYNPSFEDHQTLLSAAHEV [NOP53], the protein stability index stood at 4.73 ± 0.14 (treatment: DMSO) and 4.71 ± 0.14 (treatment: MLN4924 1 uM, 8 h).
Take APFTDEQLYMEQFTKANFWYQPSF [CARM1]: the protein stability index reads like this: (treatment: DMSO) 2.31 ± 0.42; (treatment: MLN4924 1 uM, 8 h) 2.21 ± 0.26.
On to APHSQGEYDVYSTFQSHEPEFDYL [PPP2R2C], for which the protein stability index reads like this: (treatment: DMSO) 4.22 ± 0.19; (treatment: MLN4924 1 uM, 8 h) 4.13 ± 0.2.
For APKPDAAPSIDLFSTDAFSSPPQG [SNAP91], the protein stability index is, setting by setting: (treatment: DMSO) 4.73 ± 0.14; (treatment: MLN4924 1 uM, 8 h) 4.84 ± 0.14.
As for APLSNGLCCAFSTDGSVLAAGTHD [WSB1], the protein stability index runs as follows: (treatment: DMSO) 4.06 ± 0.43; (treatment: MLN4924 1 uM, 8 h) 3.9 ± 0.24.
Take APSEGSAEAAPELDLFAMKPPETS [SNAP91]: the protein stability index by setting is: (treatment: DMSO) 5.39 ± 0.23; (treatment: MLN4924 1 uM, 8 h) 5.47 ± 0.19.
In the case of APSFSSYLYFLFCPTLIYRETYPR [SOAT2], the protein stability index by setting is: (treatment: DMSO) 2.99 ± 0.17; (treatment: MLN4924 1 uM, 8 h) 2.7 ± 0.44.
For the sequence APSIEQRLQEVRESIRRAQVSQVK [FCHSD1], the protein stability index worked out at 4.27 ± 0.39 (treatment: DMSO) and 4.35 ± 0.34 (treatment: MLN4924 1 uM, 8 h).
Turning to AQFHCAYQLADWCLHHICTNYNNV [RHOBTB2], the protein stability index reads like this: (treatment: DMSO) 3.34 ± 0.36; (treatment: MLN4924 1 uM, 8 h) 3.15 ± 0.89.
For AQLYEDFLFPIDISLVKREHDFLD [DLC1], the protein stability index by setting is: (treatment: DMSO) 2.52 ± 0.12; (treatment: MLN4924 1 uM, 8 h) 2.7 ± 0.28.
For AQTPPRPGPPSAPPPPPKEGHQEG [SCNN1D], in that order: 5.73 ± 0.27 and 5.08 ± 0.72.
On to AQYSVTGSAVARAVCKATTHEVMG [SNAP91], for which the protein stability index is 3.34 ± 0.088 (treatment: DMSO) and 3.23 ± 0.2 (treatment: MLN4924 1 uM, 8 h).
ARFQDKQYSSHHTAEKRKRLGELF [CHGB]: the protein stability index worked out at 3.58 ± 0.44 (treatment: DMSO) and 3.56 ± 0.11 (treatment: MLN4924 1 uM, 8 h).
As for ARGTGSGEDSSTSSSTPLEDEEPQ [RTN2], the protein stability index reads like this: (treatment: DMSO) 5.7 ± 0.15; (treatment: MLN4924 1 uM, 8 h) 5.62 ± 0.24.
As to ARMGFNASSMLRKSQLGFLNVTNY [DCAF4], the protein stability index (treatment: DMSO) came to 2.26 ± 0.13 and the protein stability index (treatment: MLN4924 1 uM, 8 h) stood at 2.24 ± 0.14.
Regarding ARRKLKGAILTTMLATRNFSGGKS [CAMK2A], the protein stability index is, setting by setting: (treatment: DMSO) 3.21 ± 0.37; (treatment: MLN4924 1 uM, 8 h) 3.34 ± 0.47.
Turning to ARRYAGPLHHQTQRFRLDNLLNMA [ELAVL3], the protein stability index runs as follows: (treatment: DMSO) 2.78 ± 0.35; (treatment: MLN4924 1 uM, 8 h) 2.75 ± 0.31.
For ARSVGLKWRKVGRSLQRGCRALRD [TRADD] the same measures were 2.57 ± 0.32 and 2.55 ± 0.46.
Regarding ARTFGNEARFIRRSCTPNAEVRHE [KMT2E], the protein stability index is 3.2 ± 0.51 (treatment: DMSO) and 3.22 ± 0.26 (treatment: MLN4924 1 uM, 8 h).
Consider ASLLHLAVEAGQEECAKWLLLNNA [RIPK4], for which the protein stability index came out at 2.17 ± 0.068 (treatment: DMSO) and 2.74 ± 0.13 (treatment: MLN4924 1 uM, 8 h).
Turning to ASMSKRRCGVGVSVLDDLLYAVGG [KLHL20], the protein stability index came to 2.62 ± 0.14 (treatment: DMSO) and 2.13 ± 0.44 (treatment: MLN4924 1 uM, 8 h).
Regarding ASQPRGPALLFPATRGVPAKRLLD [TRIB1], the protein stability index is, setting by setting: (treatment: DMSO) 3.72 ± 0.62; (treatment: MLN4924 1 uM, 8 h) 3.9 ± 0.36.
As for ASSPKGTIENILDNDPRDLIGDFS [CDC25A], the protein stability index by setting is: (treatment: DMSO) 4.91 ± 0.21; (treatment: MLN4924 1 uM, 8 h) 4.82 ± 0.14.
For ASSWKKQVSHDFLETRFKIQQLLE [FBXO34], the protein stability index by setting is: (treatment: DMSO) 2.89 ± 0.31; (treatment: MLN4924 1 uM, 8 h) 2.71 ± 0.41.
For ASTSLPTKPTQGASSASEPQGLFV [CLPTM1], in that order: 4.42 ± 0.12 and 4.29 ± 0.48.
Regarding ATGMEVGWYRPPFSRVVHLYRNGK [MOG], the protein stability index by setting is: (treatment: DMSO) 3.12 ± 0.36; (treatment: MLN4924 1 uM, 8 h) 2.98 ± 0.14.
Consider ATNPHVKPPYSYATLICMAMQASK [FOXJ1], for which the protein stability index is, setting by setting: (treatment: DMSO) 2.29 ± 0.32; (treatment: MLN4924 1 uM, 8 h) 2.36 ± 0.064.
For ATPIVPVVPPTPPVVKKKGVKRKA [BRD3], in that order: 5.33 ± 0.26 and 5.27 ± 0.12.
Regarding AVHSGTPVTNNLLEKCKTLVSQSN [SPACA9], the protein stability index is 3.76 ± 0.42 (treatment: DMSO) and 3.78 ± 0.39 (treatment: MLN4924 1 uM, 8 h).
